These results are taken from US20210347873A1 (SHANGHAI PHARMAEXPLORER, published 2021).

Changes are numbered by the printed parent chain.

Assay [1] deals with T1, human APRIL protein (human, UniProt O75888 105-250, limits assumed).
T1 construct: Bought protein; also called recombinant APRIL protein
T1 sequence (looked up): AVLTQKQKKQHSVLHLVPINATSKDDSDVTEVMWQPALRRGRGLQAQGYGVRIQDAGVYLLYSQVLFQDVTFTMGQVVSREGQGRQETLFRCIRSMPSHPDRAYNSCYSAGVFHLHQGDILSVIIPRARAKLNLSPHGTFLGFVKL
Put plainly: ELISA, coated APRIL; antibody 13.3 nM. In outline: (§1)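 Cross-reactivity of BLyS antibodies with human APRIL is measured by ELISA. Wells are coated overnight at 4 °C with 1.0 μg/mL APRIL and blocked 2 h at 37 °C; antibodies, then HRP secondary, are each applied 1 h at 37 °C, and TMB colour is read at 450 nm.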

The target in assay [2] is T1, human APRIL protein. Put plainly: ELISA, coated APRIL; antibody 66.7 nM. In outline:
as §1

Assay [3] deals with T1, human APRIL protein. Briefly: ELISA, coated APRIL; antibody 0.107 nM. An outline of the steps: as §1
For assay [4], the target named is T1, human APRIL protein. Put plainly: ELISA, coated APRIL; antibody 0.534 nM. In outline:
as §1

Assay [5] addresses T1, human APRIL protein. Briefly: ELISA, coated APRIL; antibody 0.0213 nM. In outline:
as §1

The target of assay [6] is T1, human APRIL protein. Briefly: ELISA, coated APRIL; antibody 0 nM (blank). In outline: as §1
In assay [7] the target is T2, human BLyS (full length, arginine to histidine at position 132) on CHO-K1 cells (human, UniProt Q9Y275 1-285).
T2 construct: also called hBLyS; CHO-K1 hBLyS
Put plainly: flow cytometry, CHO-K1 hBLyS cells, antibody 2.67 nM.

The target in assay [8] is T2, human BLyS (full length, arginine to …). Put plainly: flow cytometry, CHO-K1 hBLyS cells, antibody 66.7 nM.
The target is the same in assay [9]. Put plainly: flow cytometry, CHO-K1 hBLyS cells, antibody 0.534 nM.
The target in assay [10] is T3, cynomolgus BLyS (full length, arginine to histidine at position 132) on CHO-K1 cells (cynomolgus, UniProt Q9Y275 1-285 (human entry)).
T3 construct: also called cyno BLyS; CHO-K1 cynoBLyS
T3 chain: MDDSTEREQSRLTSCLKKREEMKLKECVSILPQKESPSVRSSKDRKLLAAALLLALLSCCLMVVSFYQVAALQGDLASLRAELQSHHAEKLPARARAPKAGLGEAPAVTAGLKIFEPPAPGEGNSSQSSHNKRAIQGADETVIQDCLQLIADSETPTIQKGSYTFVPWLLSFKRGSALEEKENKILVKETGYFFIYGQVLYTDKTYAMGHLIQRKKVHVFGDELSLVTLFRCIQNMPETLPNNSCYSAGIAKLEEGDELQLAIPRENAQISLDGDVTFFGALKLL
Put plainly: flow cytometry, CHO-K1 cynoBLyS cells, antibody 66.7 nM.

The target in assay [11] is T3, cynomolgus BLyS (full length, arginine …). Briefly: flow cytometry, CHO-K1 cynoBLyS cells, antibody 0.534 nM.
The target is the same in assay [12]. Put plainly: flow cytometry, CHO-K1 cynoBLyS cells, antibody 0.0213 nM.
Assay [13] has the same target. Put plainly: flow cytometry, CHO-K1 cynoBLyS cells, antibody 0.00427 nM.

T2 sequence (Q9Y275 whole entry R130H): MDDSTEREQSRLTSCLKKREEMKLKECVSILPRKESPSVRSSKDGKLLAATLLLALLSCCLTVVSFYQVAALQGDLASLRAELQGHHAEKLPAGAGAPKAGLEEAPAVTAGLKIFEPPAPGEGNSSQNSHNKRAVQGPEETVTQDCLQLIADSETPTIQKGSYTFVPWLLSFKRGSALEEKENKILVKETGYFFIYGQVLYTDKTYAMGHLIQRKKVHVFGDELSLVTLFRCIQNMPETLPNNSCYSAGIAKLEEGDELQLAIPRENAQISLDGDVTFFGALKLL

mIgG Control (antibody): the OD450 nm in the assay with human APRIL protein [1] was determined as 0.0624; in the assay with human APRIL protein [2], 0.102; with human APRIL protein [3], 0.0533; in the assay with human APRIL protein [4], 0.0536; with human APRIL protein [5] it was 0.0537; with human APRIL protein [6] it was 0.0716.

Take hIgG Control (antibody): the OD450 nm with human APRIL protein [1] worked out at 0.226; with human APRIL protein [2], 0.477; with human APRIL protein [3], 0.0722; with human APRIL protein [4], 0.0793; with human APRIL protein [5], 0.0804; with human APRIL protein [6], 0.0711.

B1: 8E7D9C7F5 (antibody, V domains shown)
VH: QVQLQQSGVELARPGASVKLSCKASGYTFTSYGISWVKQRTGQALEWIGEIYPRSGNTYYNEKFKGKATLTADKSSSTAYMELRSLTSEDSAVYFCARSGPITTLVATDYGMDYWGQGTSVTVSS
VL: DIVLTQSPASLAVSLGQRATISCRASKSVSTSSYSYMHWYQQKPGQPPKLLIKFASNLESGVPARFSGSGSGTDFTLNIHPVEEEDAATYYCQHSREFPYTFGGGTKLEIK
notes: Mouse hybridoma monoclonal antibody purified on Protein G
In the case of B1, the MFI is 532 MFI in assay [7]; 596 MFI in [8]; 504 MFI in assay [9]; 1170 MFI in assay [10]; 1050 MFI in [11]; 165 MFI in assay [12]. This molecule registered an MFI in assay [13] of 74.4 MFI.

B2: 97A3C2H4 (antibody, V domains shown)
VH: EVKLVESGGGLVQPGGSLKLSCAASGFTFSTYTMSWVRQTPEKRLEWVAYISYGGGSTSYPDTVKGRFTISRDNAKNTLYLQMSSLKSEDTAIYYCTRHVTVVENSMDYWGQGTSVTVSS
VL: DILLTQSPDILSVSPGERVSFSCRASQSIGTSIHWYQQRTNGSPRLLIKYVSESFSGTPSRFSGSGSGTAFTLTINSVESEDIADYYCQQTHSWPWTFGGGTKLEIK
notes: as for B1
For the molecule B2, the MFI in assay [7] stood at 448 MFI; in assay [8], 525 MFI; in [9] it was 340 MFI; in assay [10], 987 MFI; in [11], 682 MFI; in assay [12], 120 MFI. In assay [13], this molecule had an MFI of 44.3 MFI.

B3: 97A3C2H4 (antibody, V domains shown)
VH: B2 VH
VL: B2 VL
notes: Mouse hybridoma antibody purified on Protein G
B3: the OD450 nm in the assay with human APRIL protein [1] amounted to 0.0848; in the assay with human APRIL protein [2], 0.173; in the assay with human APRIL protein [3], 0.0561; in the assay with human APRIL protein [4] it was 0.059; with human APRIL protein [5], 0.0559; with human APRIL protein [6], 0.0566.

B4: L1D12 (antibody, V domains shown)
VH: QVQLVQSGGGLVQPGGSLRLSCAASGFTVSSNYMSWVRQAPGKGLEWVSVIYSGGSTYYADSVKGRFTISRDNSKNTLYLQMNSLRAEDTAVYYCARGFHDILTGYGMDVWGQGTTVTVSS
VL: SSELTQDPAVSVALGQTVRITCQGDSLRNYYAGWYQQKPGQAPVLVIYGKNNRPSGIPDRFSGSSSGNTASLTITGTQAEDEADYYCSSRDNSGTHLVEFGGGTKLTVL
notes: From a human naive scFv phage library; also called human BLyS antibody L1D12; LID12
For the molecule B4, the MFI in assay [7] was determined as 503 MFI; in [8], 550 MFI; in [9] it was 413 MFI; in [10] it was 1180 MFI; in assay [11], 900 MFI; in [12], 135 MFI. This molecule also yielded an MFI in assay [13] of 66.7 MFI.

B5: L1D12 (antibody, human IgG1, V domains shown)
VH: B4 VH
VL: B4 VL
notes: also called LID12
In the case of B5, the OD450 nm in the assay with human APRIL protein [1] amounted to 0.124; with human APRIL protein [2], 0.133; with human APRIL protein [3] it was 0.0678; with human APRIL protein [4] it was 0.0757; in the assay with human APRIL protein [5], 0.0854; with human APRIL protein [6], 0.0625.

B6: 111D10D6G3 (antibody, V domains shown)
VH: QVQLQQPGAELVKPGASVKMSCKASGYTFTRHWITWVKQRPGQGLEWIGDIFPGSGSINYNEKFKSEATLTVEKSSSTAYMQLSSLTSEDSAVYYCARGDVDVWGTGTTVTVSS
VL: DIQMTQSPSSLSASLGERVSLTCRASQEIRGYLSWLQQKPNGTIKRLIYAASTLDSGVPKRFSATRSGSDFSLTISSLESEDFADYYCLQYASYPFTFGSGTKLEIK
notes: as for B1
Take B6: the MFI in assay [7] is 265 MFI; in [8] it was 296 MFI; in assay [9], 247 MFI; in [10] it was 539 MFI; in [11], 478 MFI; in assay [12], 108 MFI. The same molecule returned an MFI in assay [13] of 38.8 MFI.

B7: 111D10D6G3 (antibody, V domains shown)
VH: B6 VH
VL: B6 VL
notes: as for B3
With B7, the OD450 nm in the assay with human APRIL protein [1] came to 0.0573; with human APRIL protein [2], 0.0681; in the assay with human APRIL protein [3] it was 0.0536; with human APRIL protein [4] it was 0.0525; with human APRIL protein [5], 0.0549; with human APRIL protein [6], 0.0547.

B8: 2-1G11 (antibody, V domains shown)
VH: EVQLVESRGGVVQPGRSLRLSCAASGFTFSSYGMHWVRQAPGKGLEWVAVISYDGSNKYYADSVKGRFTISRDNSKNTLYLQMNSLRAEDAAVYYCARDRVDILTGYSIYGMDVWGQGTTVTVSS
VL: EIVMTQSPATLSLSPGERATLSCRASQSVSSYLAWYQQKPGQAPRLLIYDASKRATGIPARFSGSGSGTDFTLTISSLEPEDFAVYYCQQRSNWPLTFGGGTKVEIK
notes: From a human naive scFv phage library; also called human BLyS antibody 2-1G11
In the case of B8, the MFI stood at 627 MFI in assay [7]; 645 MFI in assay [8]; 591 MFI in assay [9]; 1460 MFI in assay [10]; 1400 MFI in [11]; 332 MFI in [12]. The MFI in assay [13] was 176 MFI.

B9: L9G7 (antibody, human IgG1, V domains shown)
VH: QIQLVQSGAEVKKPGASVKVSCKASGYTFTSYGISWVRQAPGQGLEWMGWISAYNGNTNYAQKLQGRVTMTTDTSTSTAYMELRSLRSDDTAVYYCARTYYDILTGYYYYGMDVWGQGTTVTVSS
VL: B8 VL with M4L, A9G, A25T, S30D, S31T, K53N
In the case of B9, the OD450 nm was 0.107 with human APRIL protein [1]; 0.276 with human APRIL protein [2]; 0.0861 in the assay with human APRIL protein [3]; 0.0741 with human APRIL protein [4]; 0.0777 in the assay with human APRIL protein [5]; 0.0638 in the assay with human APRIL protein [6].

B10: L9G7 (antibody, V domains shown)
VH: B9 VH
VL: B8 VL with M4L, A9G, A25T, S30D, S31T, K53N
notes: From a human naive scFv phage library; also called human BLyS antibody L9G7
For B10, the MFI turned out to be 591 MFI in assay [7]; 697 MFI in assay [8]; 469 MFI in assay [9]; 1340 MFI in [10]; 1010 MFI in [11]; 143 MFI in assay [12]. The molecule also returned an MFI in assay [13] of 63.5 MFI.
